We go through 2 substances from paper PMC11573500.

Experiment [1] addresses CFTR D47A expressed in Xenopus laevis oocytes (human) (UniProt P13569).
Experiment [2] deals with CFTR D58A expressed in Xenopus laevis oocytes (human) (UniProt P13569).
In experiment [3] the target is CFTR E51A expressed in Xenopus laevis oocytes (human) (UniProt P13569).
The target in experiment [4] is dephosphorylated human CFTR E1371Q (human) (UniProt P13569). As to the kind of experiment: cryo-EM structure; 30 uM dephosphorylated E1371Q CFTR in digitonin, 250 uM bovine PKA-C, 1 mM P-ATP/Mg2+ and 1 mM AMP-PNP/Mg2+; 200 mM NaCl, 20 mM HEPES pH 7.4, 1 mM DTT.
Experiment [5] concerns the target phosphorylated human CFTR E1371Q (human) (UniProt P13569). Nature of the experiment: cryo-EM structure; phosphorylated E1371Q CFTR (~5 mg/mL) in digitonin with PKA-C (~10 mg/mL), 3 mM ATP/Mg2+; 200 mM NaCl, 20 mM HEPES pH 7.4, 1 mM DTT.
The target in experiment [6] is dephosphorylated wild-type human CFTR (human) (UniProt P13569). Nature of the experiment: cryo-EM structure; 30 uM dephosphorylated wild-type CFTR in digitonin, 250 uM bPKA-C, 2 mM AMP-PNP/Mg2+; 200 mM NaCl, 20 mM HEPES pH 7.4, 1 mM DTT.
Experiment [7] addresses WT CFTR expressed in Xenopus laevis oocytes (human) (UniProt P13569).

“And” between values parts separate entries of the source, which are not always exact repeats. Equal values may be shown once.

Regarding “protein kinase A catalytic subunit purified from bovine heart (from UniProt P00517 1-351) (enzyme)”, the half-time (t1/2) of macroscopic current activation by 300 nM bPKA-C in 2 mM ATP, relative to WT CFTR in experiment [1], in experiment [2] and in experiment [3] was 2 fold in each case. In addition, the stoichiometry N (PKA-C per CFTR) is 1 in experiment [4]; 1 in experiment [5]; 1 and 2 in experiment [6].
In the case of “recombinant bovine PKA-C, wild type (from UniProt P00517 1-351) (enzyme)”, the half-time (t1/2) of current activation by 300 nM rPKA-C in 2 mM ATP, relative to 300 nM bPKA-C on WT CFTR in experiment [7] stood at 6 fold.
